According to IntAct's records for PubMed 28864920:

B1: DNA repair protein RAD51 homolog 1 (Homo sapiens), Q06609 (parent)
chain: MAMQMQLEANADTSVEEESFGPQPISRLEQCGINANDVKKLEEAGFHTVEAVAYAPKKELINIKGISEAKADKILAEAAKLVPMGFTTATEFHQRRSEIIQITTGSKELDKLLQGGIETGSITEMFGEFRTGKTQICHTLAVTCQLPIDRGGGEGKAMYIDTEGTFRPERLLAVAERYGLSGSDVLDNVAYARAFNTDHQTQLLYQASAMMVESRYALLIVDSATALYRTDYSGRGELSARQMHLARFLRMLLRLADEFGVAVVITNQVVAQVDGAAMFAADPKKPIGGNIIAHASTTRLYLRKGRGETRICKIYDSPCLPEAEAMFAINADGVGDAKD
partner: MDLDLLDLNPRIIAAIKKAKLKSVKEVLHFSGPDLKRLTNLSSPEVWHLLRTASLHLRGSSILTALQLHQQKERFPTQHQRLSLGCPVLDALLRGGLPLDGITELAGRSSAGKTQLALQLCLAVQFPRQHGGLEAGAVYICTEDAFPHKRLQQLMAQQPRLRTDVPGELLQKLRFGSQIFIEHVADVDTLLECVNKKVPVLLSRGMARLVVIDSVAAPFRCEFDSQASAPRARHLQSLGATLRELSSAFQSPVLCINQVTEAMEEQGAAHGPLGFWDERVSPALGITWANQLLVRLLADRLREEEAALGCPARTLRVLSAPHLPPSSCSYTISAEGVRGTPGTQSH
B2: DNA repair protein RAD51 homolog 3 (Homo sapiens), O43502 (parent)
chain: MRGKTFRFEMQRDLVSFPLSPAVRVKLVSAGFQTAEELLEVKPSELSKEVGISKAEALETLQIIRRECLTNKPRYAGTSESHKKCTALELLEQEHTQGFIITFCSALDDILGGGVPLMKTTEICGAPGVGKTQLCMQLAVDVQIPECFGGVAGEAVFIDTEGSFMVDRVVDLATACIQHLQLIAEKHKGEEHRKALEDFTLDNILSHIYYFRCRDYTELLAQVYLLPDFLSEHSKVRLVIVDGIAFPFRHDLDDLSLRTRLLNGLAQQMISLANNHRLAVILTNQMTTKIDRNQALLVPALGESWGHAATIRLIFHWDRKQRLATLYKSPSQKECTVLFQIKPQGFRDTVVTSACSLQTEGSLSTRKRSRDPEEEL
partner: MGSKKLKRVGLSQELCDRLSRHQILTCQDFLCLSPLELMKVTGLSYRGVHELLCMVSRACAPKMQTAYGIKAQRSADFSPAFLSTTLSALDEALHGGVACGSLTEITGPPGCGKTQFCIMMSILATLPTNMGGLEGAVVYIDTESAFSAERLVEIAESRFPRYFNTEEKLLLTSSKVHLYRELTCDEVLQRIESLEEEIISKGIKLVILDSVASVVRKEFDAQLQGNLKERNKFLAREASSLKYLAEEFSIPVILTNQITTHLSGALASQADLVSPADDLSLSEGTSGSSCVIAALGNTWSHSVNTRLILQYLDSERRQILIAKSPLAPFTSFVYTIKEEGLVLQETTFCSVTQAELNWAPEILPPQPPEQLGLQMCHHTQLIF
B3: DNA repair protein XRCC3 (Homo sapiens), O43542 (parent)
chain: B1 partner
B4: DNA repair protein XRCC3 (Homo sapiens), O43542 (parent)
chain: B1 partner
partner: B2 chain
B5: DNA repair protein RAD51 homolog 3 (Homo sapiens), O43502 (parent)
chain: B2 chain
partner: B1 partner

Variants of: B1
Conditions: with xrcc3_human XRCC3, O43542
For A55V, the “effect of a mutation on the interaction” value was “with no effect”. With A79D the “effect of a mutation on the interaction” value was “decreasing interaction strength”.

Variants of: B2
Conditions: with ra51b_human RAD51B
For C135R, the “effect of a mutation on the interaction” value was “disrupting interaction strength”.

Variants of: B3
Conditions: with rad51_human RAD51, Q06609
V337E was tested, and the “effect of a mutation on the interaction” value was “disrupting interaction strength”. In the case of L297P, the “effect of a mutation on the interaction” value is reported as “disrupting interaction strength”.

Variants of: B4
Conditions: with ra51c_human RAD51C
In the case of V337E, the “effect of a mutation on the interaction” value is reported as “disrupting interaction strength”. For L297P, the “effect of a mutation on the interaction” value was “disrupting interaction strength”.

Variants of: B5
Conditions: with xrcc3_human XRCC3, O43542
With C135R the “effect of a mutation on the interaction” value was “disrupting interaction strength”.
